Source: publication PMC5645467

Molecular target: ΔIBB-importin α1 (as used for ITC) (mouse), P52293
Assay: ITC; nano-ITC, 20 °C; GST-RCC1 (300 µM) injected in 2.0 µl increments into 195 µl of ΔIBB-importin α3 or α1 (100 µM); 20 mM Tris-HCl pH 8.0, 150 mM NaCl, 5 mM BME, 0.1 mM PMSF; single set of binding sites model; triplicate
Settings: remark: other sources report otherwise

Kd: 5.4 µM
stoichiometry N: < 1
B1: GST-RCC1 (full-length human RCC1, wild type), P18754 1-421 (natural protein)
chain: MSPKRIAKRRSPPADAIPKSKKVKVSHRSHSTEPGLVLTLGQGDVGQLGLGENVMERKKPALVSIPEDVVQAEAGGMHTVCLSKSGQVYSFGCNDEGALGRDTSVEGSEMVPGKVELQEKVVQVSAGDSHTAALTDDGRVFLWGSFRDNNGVIGLLEPMKKSMVPVQVQLDVPVVKVASGNDHLVMLTADGDLYTLGCGEQGQLGRVPELFANRGGRQGLERLLVPKCVMLKSRGSRGHVRFQDAFCGAYFTFAISHEGHVYGFGLSNYHQLGTPGTESCFIPQNLTSFKNSTKSWVGFSGGQHHTVCMDSEGKAYSLGRAEYGRLGLGEGAEEKSIPTLISRLPAVSSVACGASVGYAVTKDGRVFAWGMGTNYQLGTGQDEDAWSPVEMMGKQLENRVVLSVSSGGQHTVLLVKDKEQS
